Data as given in publication PMC5770421 (2018).

Columns and labels:
Assay in all cases: BLI
H4K8ac [1] = molecular target: T1, H4K8ac (Saccharomyces cerevisiae, acetyl-Lys8 (mature numbering; K9 in UniProt); biotinylated. Limits 1-21 from the pull-down methods; the BLItz peptide is 1-20. Peptide species not given; a commercial vertebrate peptide would have …)
H4K12ac [2] = molecular target: T2, H4K12ac (Saccharomyces cerevisiae, acetyl-Lys12 (mature numbering; K13 in UniProt); biotinylated. Limits 1-21 from the pull-down methods; the BLItz peptide is 1-20. Peptide species not given; a commercial vertebrate peptide would …)
H4K5ac [3] = molecular target: T3, H4K5ac (Saccharomyces cerevisiae, acetyl-Lys5 (mature numbering; K6 in UniProt); biotinylated. Limits 1-21 from the pull-down methods; the BLItz peptide is 1-20. Peptide species not given; a commercial vertebrate peptide would have …)
H4K8ac [4] = molecular target: T1, H4K8ac; remark: listed apart in the source
H4K12ac [5] = molecular target: T2, H4K12ac; remark: listed apart in the source
H4K5ac [6] = molecular target: T3, H4K5ac; remark: listed apart in the source

T1 sequence (main, as listed by the source): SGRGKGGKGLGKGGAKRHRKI

B1: Dot1p (disruptor of telomeric silencing-1), MBP tag removed (enzyme)
chain: MGGQESISNNNSDSFIMSSPNLDSQESSISPIDEKKGTDMQTKSLSSYSKGTLLSKQVQNLLEEANKYDPIYGSSLPRGFLRDRNTKGKDNGLVPLVEKVIPPIHKKTNNRNTRKKSSTTTKKDVKKPKAAKVKGKNGRTNHKHTPISKQEIDTAREKKPLKKGRANKKNDRDSPSSTFVDWNGPCLRLQYPLFDIEYLRSHEIYSGTPIQSISLRTNSPQPTSLTSDNDTSSVTTAKLQSILFSNYMEEYKVDFKRSTAIYNPMSEIGKLIEYSCLVFLPSPYAEQLKETILPDLNASFDNSDTKGFVNAINLYNKMIREIPRQRIIDHLETIDKIPRSFIHDFLHIVYTRSIHPQANKLKHYKAFSNYVYGELLPNFLSDVYQQCQLKKGDTFMDLGSGVGNCVVQAALECGCALSFGCEIMDDASDLTILQYEELKKRCKLYGMRLNNVEFSLKKSFVDNNRVAELIPQCDVILVNNFLFDEDLNKKVEKILQTAKVGCKIISLKSLRSLTYQINFYNVENIFNRLKVQRYDLKEDSVSWTHSGGEYYISTVMEDVDESLFSPAARGRRNRGTPVKYTR
For B1, the Kd (H4K8ac [1]) was 19.6 nM, the Kd (H4K12ac [2]) was 23.3 nM and the Kd (H4K5ac [3]) was 20.1 nM. The koff (H4K8ac [4]) was 0.00237 s⁻¹, the koff (H4K12ac [5]) was 0.00302 s⁻¹ and the koff (H4K5ac [6]) was 0.00317 s⁻¹.
